Molecular target: GlcNAc-peptide derived from rhGAA containing N470 glycosite (human)
Sequence (peptide, as listed by the source): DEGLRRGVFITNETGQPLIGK

Substance Endo A-N171A (enzyme) has a transglycosylation of oxazoline 1 to the GlcNAc-peptide, yield of glycopeptide 66 of 53%.
